Assay results: US20080280833A1 (published 2008)
Each block holds one binder with its values, some of them ahead of it.

Molecular target: αvβ3 integrin on rat smooth muscle cells (RSMC) (rat)
Assay: cell-based or functional assay

stimulation of RSMC migration (Boyden chamber chemotaxis): 3 fold
B1: peptide D2A, synthetic peptide of domain 2 of human uPAR (aa130-142) (peptide)
peptide: IQEGEEGRPKDDR

IC50 of inhibition of VN-induced migration of RSMC (Boyden chamber chemotaxis): 0.01 to 0.02 pM
B2: peptide D2A-Ala (D2A with the two glutamic acids of GEEG changed into alanines) (peptide)
peptide: IQEGAAGRPKDDR
